From the domain aggregation screens of Martell et al. (2025)

Assay: soluble fraction after stress (log2 fold change); higher = more stays soluble; pooled small domains, quantitative proteomics
Settings: stress: 75 degC
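Also: 20 min heating vs room temperature control held 20 min.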

Row | Sequence | soluble fraction (log2)
1 | HMGDTHKVPGVKGVNVEQAMDMLSRLDLKAVVIDSVYVKDKKLGTVIEQNPVEGSVVKPGRPIYLVVNSRS | 0.352
2 | HMGDTISVPAVRTLAYNKAMDILNAEGLKGIVADSVYDNHTAPGTVIEQNPKAGTIVKEGREVFLTIHA | 0.117
3 | HMGDWITGTVTRIADNGWGTFQPENAHNTVSIPPKMVADNQLKEADSIKIIAEPSPDGTKTFIKAISRE | 0.113
4 | HMGEDSEPVQVPDVTGQPLWEARRTLSSMGLKVLDDGGSGSVTAQMPSAGATLRNGGQMMLYTYDEALPE | 0.126
5 | HMGEEIRTWTDAQGRKIEARMSMLDGDQVLLELKDGRKIPYPLAKLSADDAHYARHFASASASD | -0.0336
6 | HMGEFVQLKNRTGSVIEAKILNYQNGKVKLQRKDGVIFVVPISIFDRMSSSIIENKAKEMDSF | -0.263
7 | HMGEIHAQIPGLVSHLFVKEGNTVQVEQKLFILEAMKMENEIDSPIQGTVKRIHIATGSKVEKGDLIMEIS | -1.47
8 | HMGEKFTFGQIAKAKAYAKTYANDMTSAVKNIEAIATGLSKHPEVADTLKKANENQELNRITKLAG | -0.0289
9 | HMGEKPTEITLSNAISVQELAEKLYVSETDIIRTLFLDGIIVNINQVLDLETAVKVGDQLGVTITIVE | -1.33
10 | HMGEKTVPNVIGQKLATAKQLLEKEGLTVGSTSYNKNQADKDTVLSTDPAPGSHLSEGAKVNLTLSSGA | 0.0786
11 | HMGEKVIAVSGGFDPIHVGHLRMMQDAAQHGRLVVIVNSDEWLLKKKGYVFMPWEERAELIGAYDFVDE | -0.964
12 | HMGELDPKIIAQINTFLQGITKLIEHPGNKDAKKTALGALHKLTFDQNITANFGKQLGQLDQVIQSSEET | 0.0337
13 | HMGELGPGSRGQAVRALQERLMALGFPLARFGADGIFGRETTGALRAFQHVAGLSPTGLGDHETLKWLGII | -1.33
14 | HMGELTNALATLSERERDVARLVAQGLDNRQIAAQLFLSEGTVRNRISDILDKLALTNRTQLAIAWLHAE | -1.4
15 | HMGEPTLTIRVVSYNPQSGEMVVVARDPLSGRYALATLNVRTGAGQMIGPQGELLPIENFALGS | -1.65
16 | HMGEQVAVPDVTKKSVREVNNILTSAGLRLQIEGSGISVRQDPPADTMVAPDTVVTVSFEPP | 0.118
17 | HMGEQVFSRKDLAINGNDLKAVFGWPPGPKYREALDQLFHWVLEDPARNRRETLLAYLHSLYD | -0.136
18 | HMGESEKTLELVSQKDALVDEAFFFVRFQALLESNKTKGAQDLLDQSNHLSAAKLLQANAYLDIV | 0.44
19 | HMGESFEELAREISDDTGSKTEGGETGLFPRGVMAPQFEEAAFLLKVGDISEPIRTKFGYHIIKLKEIKP | -0.0117
20 | HMGESVVVPDLRGKTLEEARAILKKVDLDYEINDSTYSKTAVPGTIRDIVPAPGSHVKAGRILFVSING | -0.553
21 | HMGETISVPAVRSLAYDRAVDMLTAEGLKGIVADSVYDNRTQPGTVIEQNPKAGTIVKEGREVYLTINA | 0.275
22 | HMGFAPEAAREEVAQLIGQRGRAVTVLRPSGQVEIAGRRFEATVEVGAVDAGDTIVVRGQTAFALLVEKAD | -0.292
23 | HMGFKLQRYTTFVVERLKKYQDTPAAQMHDLLKEHYPDFPAVSPKTVYNYVMKIRQEHGLPAV | -4.26
24 | HMGFSERLAQAMSHAGYTQGGLAKAVGMAQSSVNKLLNNANSSRKTVEIASVLGVRPEWLSTGEGDML | -0.092
25 | HMGFSKGKRDLIRMIKLAIRELADDNGRAQIEDVITRLVQEGHSRDEIRLQIDMFLRQGEAMEPKQGIIKL | -1.08
26 | HMGFSLEQFGTDPDLKKIVENAFERIITASEGRIFKSDFSSNNSALPLEIFSFLIAVILLKLSGMN | -0.157
27 | HMGFVATRSRKFLPFSEARAITRGLGFSNQKDYKEWIKGNGNELLLPFNPWRTYGDSGWKGWKDFLGTDKA | -1.39
28 | HMGFYDLFINLADKVGSLADVTQILAEARINLVNVHILEIREEIDGIAQLTFSSEKDRQKALELLKTKYK | -1.87

Row | Sequence | soluble fraction (log2)
29 | HMGGDFVEHLKDLASEAPVIRLVNTIIGRVIDLRASDIHLEPFDDGLHVRYRVDGVIHPGELVPPRLS | 0.0444
30 | HMGGEGQIEIREREGIPAEAWVDGVMRGQTPLRVEHVSIGTRRVELRAEGRPPVAADVLVRPTVTALVELS | 0.263
31 | HMGGEHPIPEDWAVNEANYEHGAKFYGYTRAHVDAEAQAFRDQYAANGKKYVDWDAHFRTFMRWQNERRYG | -0.0635
32 | HMGGEPVSARVPDTLHGARLDATAAALFPDFSRSRLAEWIKAGRLRRNDQPAKPRDKVAVDDHLLLIPEY | 0.0937
33 | HMGGFSVTAEAFDGTPEVGKTVGFTAGSTKIKVEDTKGDATFGTILEKETVGFGEGKYTYFYIGL | -0.428
34 | HMGGKAITGGEGEIIIRADKAETVAIYGIDGRLVHRVSTEAGDTKRVSVPAGIYIVKGAKVVV | 0.179
35 | HMGGKTAVVTGSLVNVRKGPGTGNALVGQVARGDELPVLGQDGDWYQIKLANGSNGWVAGWLVSLKDAVP | 0.334
36 | HMGGLIDQSIQEIIDKYSVPGKKIQKAQRLKIVAEMHTKGIFKMRGGVQQAAQALGVTRYTVYNDLEVMN | -3.08
37 | HMGGLLSVIQKKAINNVKDRYSENAIKSMTKVQLHDLIKAETSRLLDPANAKETPEYQAFLEE | -0.0634
38 | HMGGLSAEQKNGIQSVLKNFDPKNLTSADAKSITSEFKKLGVQPGKDLETTMAASGFDAKEVGRLAF | 0.106
39 | HMGGPRDVPYSTFLIEVEKGQVAEVTIQDHKITGTYKNSNEPFITNAPDDPDLVSRLIKYGVGVQAKPPE | 0.0896
40 | HMGGREEAGTDIARLLGYINDIHGEELIAKLEYYQKMLGSENFAVLMSRLPDGQKKELREQNLYSEYV | -0.152
41 | HMGGRRHANMSREEEAAFLAPFFEKAAQGGILVVREIRQALDAHLGRTVPLSTVYNLLHRHNWRKL | -3.39
42 | HMGGRTITVGISENMTVKDIAQMLEEKGLIEDARLFVVQELLSAYHKEIKPGIYDLSTDMTAAQMLEIMS | -0.443
43 | HMGGSIDITTAPPGAKIYLDADYYGKTPKRLENISAGTYRLHLLHPEKGEVYRSVTLNEKNGTLKIDENLN | 0.0541
44 | HMGGTATDYYNQGRTAYDVGDYNGALMNFQEAVRLDPRYGEAYYGLGKAYEALNMQNQALDAYLSAI | -0.529
45 | HMGGVSTDKPLNWDADGTSKLTQEQIDYLRSTYDLSDMSKQDYYDLMADLTNMNAISIKDVISQYVK | -0.0294
46 | HMGGYVVVGDKDGFWSVVSTPVSKAKAEELLKDTTFPKGEKGKIVSVAEAMSHKKVIGKEYLESGGT | 0.0752
47 | HMGHASPGNREALQFALERHQARAAEFAEKAGLSIANASTKFKQLWEQGFLMRNESVADSGGVEFLYQR | -0.113
48 | HMGHEISLNNSRFLKLLNKTKISISNDDTRHYLNGIFLHLTEAHGRQFLTGVATDSHRLSSSSLEID | -0.206
49 | HMGHRQRRARARNRSMLEDIPGLGPKRRQQLLRQFGGLPQLMRAGVAELSQVPGISDSLARKIHAELHPES | -2.73
50 | HMGHYGQMTRDLIEKAKTYEEGEEKAALVLTIANLMKRHYLTWNRATVENTLIAEQLKEMSEGALTLPEDV | -0.956
51 | HMGIAEGSSVFVRVLAAEDGGRYTVSFAGRRFSVLSRQALGIGSAFRADVKVEKGQVLLVPR | -2.95
52 | HMGIAERKEKQKLEIRNAILEASRKLIVEEGFEKVTMRKIADLIEYSPTTVYLYFKDKNEILFHLHQ | -1.54
53 | HMGIDVSAFSDTALEVLRLQAAGYTTREIAQQLHITQRTVKYHASENYRKLDARNLVDAVQIAQSLHI | -1.5
54 | HMGIEIKLLMSFMTDSGRKVSLFVTDPREDVTETEIKQVMDLIIEKNIFAPNGEDIVSAKEAKIVQT | -1.35
55 | HMGIERTNADTSFSVNVYGKELIITSNKPLVVNIYAIDGTLVRTEQVTIGVNTVSGLPSGIYVVGQQKVVI | -1.1
